From publication PMC3531509

Biological target: rabbit muscle actin (rabbit) (UniProt P68135)
Experiment: ELISA

## Calmodulin-like calcium binding protein EhCaBP3 of Entamoeba histolytica (recombinant, wild type) (natural protein)
  percent inhibition of binding by EGTA: 75%
